Reference: patent publication US20090202429A1 (TRUSTEES OF COLUMBIA UNIVERSITY IN THE CITY OF NEW YORK, published 2009)
Substitutions are numbered along the chain they refer to. Names may count otherwise.

B1: murine platelet glycoprotein Ib alpha (GPIb alpha), on mouse platelets (receptor, UniProt O35930 17-734, looked up)
chain: QHTCSISKVTSLLEVNCENKKLTALPADLPADTGILHLGENQLGTFSTASLVHFTHLTYLYLDRCELTSLQTNGKLIKLENLDLSHNNLKSLPSLGWALPALTTLDVSFNKLGSLSPGVLDGLSQLQELYLQNNDLKSLPPGLLLPTTKLKKLNLANNKLRELPSGLLDGLEDLDTLYLQRNWLRTIPKGFFGTLLLPFVFLHANSWYCDCEILYFRHWLQENANNVYLWKQGVDVKDTTPNVASVRCANLDNAPVYSYPGKGCPTSSGDTDYDDYDDIPDVPATRTEVKFSTNTKVHTTHWSLLAAAPSTSQDSQMISLPPTHKPTKKQSTFIHTQSPGFTTLPETMESNPTFYSLKLNTVLIPSPTTLEPTSTQATPEPNIQPMLTTSTLTTPEHSTTPVPTTTILTTPEHSTIPVPTTAILTTPKPSTIPVPTTATLTTLEPSTTPVPTTATLTTPEPSTTLVPTTATLTTPEHSTTPVPTTATLTTPEHSTTPVPTTATLTTPEPSTTLTNLVSTISPVLTTTLTTPESTPIETILEQFFTTELTLLPTLESTTTIIPEQNSFLNLPEVALVSSDTSESSPFLNSDFCCFLPLGFYVLGLLWLLFASVVLILLLTWTWHVTPHSLDMEQSAALATSTHTTSLEVQRARQVTMPRAWLLFLQGSLPTFRSSLFLWVRPNGRVGPLVAGRRPSALSQGRGQDLLGTVGIRYSGHSL
notes: whole, on cells; also called murine GPIb alpha; murine platelets
B2: recombinant human VWF-A1 protein with 1309I>V and 1324G>S (ligand)
chain: QEPGGLVVPPTDAPVSPTTLYVEDISEPPLHDFYCSRLLDLVFLLDGSSRLSEAEFEVLKAFVVDMMERLRVSQKWVRVAVVEYHDSSHAYIGLKDRKRPSELRRIASQVKYAGSQVASTSEVLKYTLFQIFSKIDRPEASRIALLLMASQEPQRMSRNFVRYVQGLKKKKVIVIPVGIGPHANLKQIRLIEKQAPENKAFVLSSVDELEQQRDEIVSYLCDLAPEAPPPTLPP
notes: also called doubly mutated protein; not shown: amino-terminal vector-derived tag with 6x histidine
B3: recombinant human VWF-A1 protein with 1309I>V and 1326H>R (ligand)
chain: B2 chain with S87G, H89R
notes: as for B2
B4: recombinant murine VWF-A1 protein, wild type (amino acid residues 1238 to 1471, made in bacteria, His tag) (ligand)
chain: QEPGGLVAPPTDAPVSSTTPYVEDTPEPPLHNFYCSKLLDLVFLLDGSSMLSEAEFEVLKAFVVGMMERLHISQKRIRVAVVEYHDGSRAYLELKARKRPSELRRITSQIKYTGSQVASTSEVLKYTLFQIFGKIDRPEASHITLLLTASQEPPRMARNLVRYVQGLKKKKVIVIPVGIGPHASLKQIRLIEKQAPENKAFLLSGVDELEQRRDEIVSYLCDLAPEAPAPTQPP
modifications: single intra-chain disulfide bond between residues 1272 and 1458
notes: Treated as one molecule; also called M VWF-A1; mouse VWF-A1; not shown: amino-terminal 10 amino acids (including 6x histidine) contributed by the vector pQE9
B5: recombinant murine VWF-A1 protein with the type 2B mutation I1309V (1309I>V) (ligand)
chain: B4 chain with I72V
notes: also called M VWF-A1 protein containing the type 2B mutation I1309V; not shown: amino-terminal vector-derived tag with 6x histidine
B6: recombinant murine VWF-A1 protein with 1326R>H (ligand)
chain: B4 chain with R89H
notes: also called mutated murine protein; not shown: amino-terminal vector-derived tag with 6x histidine

How the values were obtained:
[1] = biological target: T1, murine plasma VWF with the 1326R>H mutation (from homozygous VWF 1326R>H knock-in mice) (mouse, UniProt Q8CIZ8 764-2813); experiment: not told at this place
T1 construct: Plasma-derived multimeric VWF; also called R1326H mutant mouse VWF; mutant mouse plasma VWF

[2] = biological target: T2, human platelet glycoprotein Ib alpha (GPIb alpha), on human platelets (human, UniProt P07359 17-652); experiment: human platelets attached to coated human VWF-A1 against wall shear rate
T2 construct: whole, on cells; also called GPIbα; human GPIb alpha

[3] = biological target: T2, human platelet glycoprotein Ib alpha …; experiment: interaction times of VWF-A1 coated beads on surface-immobilized platelets, wall shear stress 1 dyn cm^-2
Description: The duration of these interactions are measured by recording images from a Nikon X60 DIC objective (oil immersion) viewed at a frame rate of 235 fps (Speed Vision Technologies, San Diego, Calif.) and subjected to wall shear stresses (WSS) ranging from 0.5 to 3.0 dyn cm⁻². The cellular off-rates are determined by plotting the natural log of the number of VWF-A1 coated microspheres that interacted as a function of time after the initiation of tethering, the slope of the line=−koff (s⁻¹) which is the inverse of the bond lifetime. The force acting on the tether bond was calculated from force balance equations as stated above and koff plotted as a function of these forces.

[4] = biological target: B1; experiment: panel B: coated beads on surface-immobilized murine platelets in flow, ln of bead tethering events against time; shear stress 0.5 dyn cm-2; R2 0.96
Description: (§1) The cellular off-rates are determined by plotting the natural log of the number of VWF-A1 coated microspheres that interacted as a function of time after the initiation of tethering, the slope of the line=−koff (s⁻¹) which is the inverse of the bond lifetime. The force acting on the tether bond was calculated from force balance equations as stated above and koff plotted as a function of these forces.
(§2) The use of beads with one uniform size and shape permits determination of the relationship between wall shear stress and the force directly acting on the GPIb alpha-VWF-A1 tether bond (Fb), a parameter difficult to estimate for discoid-shaped objects such as platelets. […] This antibody was made by immunizing Fischer 344 rats (3-4 months old) with recombinant WT protein. […] Spleens from animals with the highest antibody titers were harvested and splenocytes fused with Sp2/0 mouse myeloma cells (54).

[5] = biological target: B1; experiment: panel B: coated beads on surface-immobilized murine platelets in flow, ln of bead tethering events against time; shear stress 2.0 dyn cm-2; R2 0.95
Description: as §1, §2

[6] = biological target: B1; experiment: panel B: coated beads on surface-immobilized murine platelets in flow, ln of bead tethering events against time; shear stress 3.0 dyn cm-2; R2 0.98
Description: as §1, §2

[7] = biological target: B1; experiment: coated beads on surface-immobilized murine platelets in flow, ln of bead tethering events against time; shear stress 0.5 dyn cm-2; R2 0.96
Description: as §1, §2

[8] = biological target: B1; experiment: coated beads on surface-immobilized murine platelets in flow, ln of bead tethering events against time; shear stress 1.0 dyn cm-2; R2 0.95
Description: as §1, §2

[9] = biological target: B1; experiment: coated beads on surface-immobilized murine platelets in flow, ln of bead tethering events against time; shear stress 2.0 dyn cm-2; R2 0.98
Description: as §1, §2

[10] = biological target: T2, human platelet glycoprotein Ib alpha …; experiment: human platelets perfused over coated mutant VWF-A1, wall shear rate 800 s-1; the sheet states that R563H corresponds to R1326H
[11] = biological target: B1; experiment: platelet adhesion to coated recombinant VWF-A1, flow chamber, 800 s^-1
[12] = biological target: B1; experiment: cell-based or functional assay

T2 sequence (P07359 17-652): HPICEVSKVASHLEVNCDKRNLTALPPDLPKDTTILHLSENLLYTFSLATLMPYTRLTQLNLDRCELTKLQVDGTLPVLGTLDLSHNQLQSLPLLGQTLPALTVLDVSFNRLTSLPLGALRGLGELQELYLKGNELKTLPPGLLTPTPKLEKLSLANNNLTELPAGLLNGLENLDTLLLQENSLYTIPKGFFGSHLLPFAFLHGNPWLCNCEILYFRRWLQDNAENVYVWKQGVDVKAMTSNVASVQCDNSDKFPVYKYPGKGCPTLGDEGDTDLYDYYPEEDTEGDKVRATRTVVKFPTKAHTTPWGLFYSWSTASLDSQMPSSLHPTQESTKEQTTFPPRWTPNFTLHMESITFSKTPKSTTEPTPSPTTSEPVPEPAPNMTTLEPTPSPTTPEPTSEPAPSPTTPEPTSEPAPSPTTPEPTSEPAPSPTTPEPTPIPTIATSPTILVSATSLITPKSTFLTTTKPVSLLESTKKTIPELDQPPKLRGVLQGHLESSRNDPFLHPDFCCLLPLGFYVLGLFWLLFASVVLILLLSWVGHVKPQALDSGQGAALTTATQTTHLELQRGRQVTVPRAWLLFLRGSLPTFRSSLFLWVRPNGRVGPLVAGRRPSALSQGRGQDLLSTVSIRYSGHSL
T1 sequence (Q8CIZ8 other isoform, or with tags, fused parts or gaps limits assumed): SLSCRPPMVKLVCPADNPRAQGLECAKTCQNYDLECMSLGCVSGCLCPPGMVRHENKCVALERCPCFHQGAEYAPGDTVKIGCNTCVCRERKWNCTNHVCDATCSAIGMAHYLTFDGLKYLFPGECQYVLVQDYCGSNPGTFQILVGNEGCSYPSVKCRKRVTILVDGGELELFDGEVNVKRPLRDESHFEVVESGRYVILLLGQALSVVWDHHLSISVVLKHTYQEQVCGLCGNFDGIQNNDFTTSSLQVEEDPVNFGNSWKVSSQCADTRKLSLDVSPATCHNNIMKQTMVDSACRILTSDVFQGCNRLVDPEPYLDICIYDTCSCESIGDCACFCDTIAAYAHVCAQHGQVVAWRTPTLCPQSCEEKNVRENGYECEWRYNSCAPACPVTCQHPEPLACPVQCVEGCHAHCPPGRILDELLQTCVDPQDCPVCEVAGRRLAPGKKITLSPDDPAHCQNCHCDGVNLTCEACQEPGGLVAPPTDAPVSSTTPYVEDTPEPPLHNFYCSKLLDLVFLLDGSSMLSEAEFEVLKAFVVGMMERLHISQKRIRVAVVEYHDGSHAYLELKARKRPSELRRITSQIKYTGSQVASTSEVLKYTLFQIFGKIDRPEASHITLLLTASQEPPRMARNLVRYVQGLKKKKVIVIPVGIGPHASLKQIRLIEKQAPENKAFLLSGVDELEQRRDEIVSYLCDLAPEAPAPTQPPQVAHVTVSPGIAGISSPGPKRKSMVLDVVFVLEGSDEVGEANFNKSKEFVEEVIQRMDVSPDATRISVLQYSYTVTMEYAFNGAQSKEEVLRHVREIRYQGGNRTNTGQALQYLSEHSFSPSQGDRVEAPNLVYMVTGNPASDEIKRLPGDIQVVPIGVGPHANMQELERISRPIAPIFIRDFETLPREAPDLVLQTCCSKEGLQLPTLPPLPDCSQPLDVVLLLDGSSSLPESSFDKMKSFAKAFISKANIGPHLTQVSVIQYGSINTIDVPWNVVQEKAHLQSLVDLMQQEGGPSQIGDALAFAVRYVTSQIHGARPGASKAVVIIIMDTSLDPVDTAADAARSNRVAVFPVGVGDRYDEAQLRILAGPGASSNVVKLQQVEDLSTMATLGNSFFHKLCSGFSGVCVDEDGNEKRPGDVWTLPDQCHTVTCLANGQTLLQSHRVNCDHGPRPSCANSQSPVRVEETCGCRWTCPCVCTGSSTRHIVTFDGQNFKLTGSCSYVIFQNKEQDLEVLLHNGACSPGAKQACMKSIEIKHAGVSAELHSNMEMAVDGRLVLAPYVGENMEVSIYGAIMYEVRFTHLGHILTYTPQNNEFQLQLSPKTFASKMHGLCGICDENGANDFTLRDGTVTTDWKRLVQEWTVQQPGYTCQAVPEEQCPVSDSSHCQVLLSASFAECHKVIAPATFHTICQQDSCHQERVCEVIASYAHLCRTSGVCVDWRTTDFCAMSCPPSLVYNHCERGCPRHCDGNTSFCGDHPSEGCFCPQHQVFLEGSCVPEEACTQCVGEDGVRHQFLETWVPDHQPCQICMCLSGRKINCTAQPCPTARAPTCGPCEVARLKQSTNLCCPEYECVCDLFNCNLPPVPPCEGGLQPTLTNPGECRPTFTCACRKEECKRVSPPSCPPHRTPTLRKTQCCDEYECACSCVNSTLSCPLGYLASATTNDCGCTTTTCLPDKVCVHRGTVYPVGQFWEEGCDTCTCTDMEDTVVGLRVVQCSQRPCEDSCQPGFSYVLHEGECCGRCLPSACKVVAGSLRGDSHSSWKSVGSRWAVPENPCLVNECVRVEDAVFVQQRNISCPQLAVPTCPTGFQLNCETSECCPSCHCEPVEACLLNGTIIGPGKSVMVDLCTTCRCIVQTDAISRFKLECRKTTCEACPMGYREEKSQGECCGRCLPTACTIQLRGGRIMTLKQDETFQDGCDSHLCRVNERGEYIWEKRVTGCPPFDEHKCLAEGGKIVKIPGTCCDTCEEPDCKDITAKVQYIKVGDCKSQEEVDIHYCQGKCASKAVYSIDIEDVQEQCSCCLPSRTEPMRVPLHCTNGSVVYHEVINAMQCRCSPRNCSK

Binder: B1
- binding result [1]: binds

Binder: B2
- binding result [2]: no binding

Binder: B3
- fold reduction in koff against the single mutant 1326H>R [3]: 2 fold
- koff [3]: 8.5 s⁻¹

Binder: B4
- koff [4]: 5.1 s⁻¹
- koff [5]: 8.4 s⁻¹
- koff [6]: 9.9 s⁻¹

Binder: B5
- koff [7]: 0.7 s⁻¹
- koff [8]: 0.9 s⁻¹
- koff [9]: 1.6 s⁻¹

Binder: B6
- binding result [10]: binds
- fold reduction of platelet adhesion against the WT mouse protein [11]: ~5 fold
- translocation velocities of murine platelets, fold increase against the WT mouse protein, 800 s^-1 [12]: ~7 fold
